# Data: patent US11607390B2, “Self-righting systems and related components and methods” (priority 2017, dated 2023)
# System: Micrococcus lysodelkticus cells
# Assay: Lysozyme enzyme activity assay
# Format: biochemical
# Conditions: micropost tips 80% lysozyme, 20% PEO 200k vs uncompressed
# Procedure: […] assays were performed on the dissolved solution.
# To measure the activity of lysozyme, the assay provided by Sigma Aldrich was used which measures the amount of lysed Micrococcus lysodelkticus cells. Briefly, a 200 unit/mL Lysozyme solution in 50 mM Potassium Phosphate Buffer was added to a 0.015% [w/v] Micrococcus lysodeiklicus cell suspension in the same buffer. The decrease was recorded in A450 over 5 minutes. Nine micropost tips were fabricated from 80% lysozyme and 20% PEO 200k and dissolved sets of three micropost tips together. Triplicate assays were performed on each dissolved solution for a total of nine tests and the results were compared to the results of a solution made with lysozyme that was not compressed into a micropost tip.
substance,measurement,value
lysozyme,enzymatic activity after the manufacturing process,maintain their activity
